{"source": "paper PMC5487423", "about": "(2017)", "experiment_in_all_cases": "BLI", "key": {"CCL27_HUMAN": {"target": "CCL27_HUMAN"}, "CCL19_MOUSE": {"target": "CCL19_MOUSE"}, "CCL27_MOUSE": {"target": "CCL27_MOUSE"}, "CCL9_MOUSE": {"target": "CCL9_MOUSE"}, "CCL15_HUMAN": {"target": "CCL15_HUMAN"}, "CCL8_MOUSE": {"target": "CCL8_MOUSE"}, "CCL12_MOUSE": {"target": "CCL12_MOUSE"}, "CCL24_MOUSE": {"target": "CCL24_MOUSE"}, "CCL6_MOUSE": {"target": "CCL6_MOUSE"}, "CCL23_HUMAN": {"target": "CCL23_HUMAN"}, "CCL3": {"target": "T1, CCL3 (human, UniProt P10147 24-92)", "T1 chain": "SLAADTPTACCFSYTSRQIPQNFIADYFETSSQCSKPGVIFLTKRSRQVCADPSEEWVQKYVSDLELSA"}, "CCL13_HUMAN": {"target": "CCL13_HUMAN (Homo sapiens)", "sequence (chain, as listed by the source)": "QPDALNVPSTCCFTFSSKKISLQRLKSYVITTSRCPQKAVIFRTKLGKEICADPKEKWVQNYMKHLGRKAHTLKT"}, "CCL19_HUMAN": {"target": "T2, CCL19_HUMAN (Homo sapiens)", "T2 chain": "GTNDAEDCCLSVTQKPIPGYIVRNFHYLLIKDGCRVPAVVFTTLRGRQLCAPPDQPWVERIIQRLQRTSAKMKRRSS"}, "CCL7": {"target": "CCL7 (human, UniProt P80098 24-99)", "sequence (P80098 24-99)": "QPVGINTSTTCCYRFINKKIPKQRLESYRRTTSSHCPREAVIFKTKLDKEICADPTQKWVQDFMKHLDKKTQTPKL"}, "CCL18_HUMAN": {"target": "T3, CCL18_HUMAN (Homo sapiens)", "T3 chain": "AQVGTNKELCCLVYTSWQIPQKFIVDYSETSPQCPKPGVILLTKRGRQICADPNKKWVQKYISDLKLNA"}, "CCL22_HUMAN": {"target": "T4, CCL22_HUMAN (Homo sapiens)", "T4 chain": "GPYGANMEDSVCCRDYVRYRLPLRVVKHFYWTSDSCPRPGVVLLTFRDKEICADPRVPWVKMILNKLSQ"}, "CCL4_HUMAN": {"target": "T5, CCL4_HUMAN (Homo sapiens)", "T5 chain": "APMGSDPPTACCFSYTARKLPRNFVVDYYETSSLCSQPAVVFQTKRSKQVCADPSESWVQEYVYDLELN"}, "CCL2_MOUSE": {"target": "CCL2_MOUSE (Mus musculus)", "sequence (chain, as listed by the source)": "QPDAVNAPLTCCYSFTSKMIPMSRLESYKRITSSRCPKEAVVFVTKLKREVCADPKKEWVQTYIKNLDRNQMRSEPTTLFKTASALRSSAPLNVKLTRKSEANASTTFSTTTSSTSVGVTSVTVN"}, "CCL4L1_HUMAN": {"target": "T6, CCL4L1_HUMAN (Homo sapiens)", "T6 chain": "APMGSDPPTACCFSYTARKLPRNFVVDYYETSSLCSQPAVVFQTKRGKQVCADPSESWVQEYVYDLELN"}, "CCL16_HUMAN": {"target": "T7, CCL16_HUMAN (Homo sapiens)", "T7 chain": "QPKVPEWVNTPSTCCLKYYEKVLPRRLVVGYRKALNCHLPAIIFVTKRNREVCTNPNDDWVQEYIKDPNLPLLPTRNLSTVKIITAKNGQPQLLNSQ"}, "CCL2": {"target": "CCL2 (human, UniProt P13500 24-99)", "sequence (P13500 24-99)": "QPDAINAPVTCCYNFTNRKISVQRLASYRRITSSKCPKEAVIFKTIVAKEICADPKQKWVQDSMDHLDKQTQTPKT"}, "CCL22_MOUSE": {"target": "T8, CCL22_MOUSE (Mus musculus)", "T8 chain": "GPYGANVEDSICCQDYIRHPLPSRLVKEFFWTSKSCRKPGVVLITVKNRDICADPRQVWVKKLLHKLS"}, "CCL8": {"target": "T9, CCL8 (human, UniProt P80075 24-99)", "T9 chain": "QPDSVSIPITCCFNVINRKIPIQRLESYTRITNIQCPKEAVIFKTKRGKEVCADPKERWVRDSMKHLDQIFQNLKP"}, "CCL5": {"target": "T10, CCL5 (human, UniProt P13501 24-91)", "T10 chain": "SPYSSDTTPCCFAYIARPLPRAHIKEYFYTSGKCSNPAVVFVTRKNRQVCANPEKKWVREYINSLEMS"}, "CCL11_MOUSE": {"target": "T11, CCL11_MOUSE (Mus musculus)", "T11 chain": "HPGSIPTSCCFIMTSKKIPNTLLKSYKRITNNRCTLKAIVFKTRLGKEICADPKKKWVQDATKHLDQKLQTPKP"}}, "data": [{"binder": "P991_AMBCA, purified, C-terminal StrepII-8xHis tag (natural protein) ETGENGEGTTQPDYDNSTDYYNYEDFKCTCPAPHLNNTNGTVMKPIGCYYTCNVTRCTAPDTYPCYNLTEHQAKNLTTSPTTLCAVGNCDHGICVPNGTKELCFKAPNLEE", "values": [{"measurement": "Kd", "setting": "CCL27_HUMAN", "value": 38.9, "unit": "nM"}, {"measurement": "Kd", "setting": "CCL19_MOUSE", "value": 4.81, "unit": "nM"}, {"measurement": "Kd", "setting": "CCL27_MOUSE", "value": 58, "unit": "nM"}, {"measurement": "Kd", "setting": "CCL9_MOUSE", "value": 13.3, "unit": "nM"}, {"measurement": "Kd", "setting": "CCL15_HUMAN", "value": 159, "unit": "nM"}, {"measurement": "Kd", "setting": "CCL8_MOUSE", "value": 4.83, "unit": "nM"}, {"measurement": "Kd", "setting": "CCL12_MOUSE", "value": 7.47, "unit": "nM"}, {"measurement": "Kd", "setting": "CCL24_MOUSE", "value": 3.16, "unit": "nM"}, {"measurement": "Kd", "setting": "CCL6_MOUSE", "value": 1.52, "unit": "nM"}, {"measurement": "Kd", "setting": "CCL23_HUMAN", "value": 5.58, "unit": "nM"}, {"measurement": "Kd", "setting": "CCL3", "value": 1.08, "unit": "nM"}, {"measurement": "Kd", "setting": "CCL13_HUMAN", "value": 0.419, "unit": "nM"}, {"measurement": "Kd", "setting": "CCL19_HUMAN", "value": 14.4, "unit": "nM"}, {"measurement": "Kd", "setting": "CCL7", "value": 0.514, "unit": "nM"}, {"measurement": "Kd", "setting": "CCL18_HUMAN", "value": 0.209, "unit": "nM"}, {"measurement": "Kd", "setting": "CCL22_HUMAN", "value": 3.97, "unit": "nM"}, {"measurement": "Kd", "setting": "CCL4_HUMAN", "value": 5.82, "unit": "nM"}, {"measurement": "Kd", "setting": "CCL2_MOUSE", "value": 24.3, "unit": "nM"}, {"measurement": "Kd", "setting": "CCL4L1_HUMAN", "value": 0.827, "unit": "nM"}, {"measurement": "Kd", "setting": "CCL16_HUMAN", "value": 1.28, "unit": "nM"}, {"measurement": "Kd", "setting": "CCL2", "value": 12.2, "unit": "nM"}, {"measurement": "Kd", "setting": "CCL22_MOUSE", "value": 8.59, "unit": "nM"}, {"measurement": "Kd", "setting": "CCL8", "value": 8.79, "unit": "nM"}, {"measurement": "Kd", "setting": "CCL5", "value": 1.47, "unit": "nM"}, {"measurement": "Kd", "setting": "CCL11_MOUSE", "value": 1.11, "unit": "nM"}]}]}
